Legend:
[1] = target: human lymphoma (HH) cell line (human); test: binding to HH cells, dose-dependent (FIG. 5); receptor on the cells not named
[2] = target: T1, IL-2/15Rβ (CD122) ECD (human) (UniProt P14784); test: SPR, Biacore 8K, complex captured on anti-human Fc CM5 chip, receptor ECD-His injected; ka and kd printed as NA
T1 sequence: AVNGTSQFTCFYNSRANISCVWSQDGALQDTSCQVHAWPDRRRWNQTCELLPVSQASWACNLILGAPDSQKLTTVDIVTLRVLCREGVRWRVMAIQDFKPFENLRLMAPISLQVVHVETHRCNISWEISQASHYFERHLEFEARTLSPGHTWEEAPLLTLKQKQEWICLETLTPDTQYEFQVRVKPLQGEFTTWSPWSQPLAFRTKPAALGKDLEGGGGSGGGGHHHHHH

- EC50 [1]: 0.172 µM
- Kd [2]: 8.58 µM
B1: W327151-BMK1 (XENP24306) (Fc fusion, part only; not given: IL-15Ralpha-Fc chain, linker and Fc, not shown: a dimerising Fc or GST)
chain, part: NWVNVISDLKKIEDLIQSMHIDATLYTESNVHPSCKVTAMKCFLLELQVISLESGDASIHDTVQDLIILANNSLSSNGNVTESGCKECEELEEKNIKEFLQSFVHIVQMFINTS
